First the molecules themselves.
B1: Multifunctional methyltransferase subunit TRM112-like protein (Homo sapiens), Q9UI30 (parent)
chain: MKLLTHNLLSSHVRGVGSRGFPLRLQATEVRICPVEFNPNFVARMIPKVEWSAFLEAADNLRLIQVPKGPVEGYEENEEFLRTMHHLLLEVEVIEGTLQCPESGRMFPISRGIPNMLLSEEETES
partner: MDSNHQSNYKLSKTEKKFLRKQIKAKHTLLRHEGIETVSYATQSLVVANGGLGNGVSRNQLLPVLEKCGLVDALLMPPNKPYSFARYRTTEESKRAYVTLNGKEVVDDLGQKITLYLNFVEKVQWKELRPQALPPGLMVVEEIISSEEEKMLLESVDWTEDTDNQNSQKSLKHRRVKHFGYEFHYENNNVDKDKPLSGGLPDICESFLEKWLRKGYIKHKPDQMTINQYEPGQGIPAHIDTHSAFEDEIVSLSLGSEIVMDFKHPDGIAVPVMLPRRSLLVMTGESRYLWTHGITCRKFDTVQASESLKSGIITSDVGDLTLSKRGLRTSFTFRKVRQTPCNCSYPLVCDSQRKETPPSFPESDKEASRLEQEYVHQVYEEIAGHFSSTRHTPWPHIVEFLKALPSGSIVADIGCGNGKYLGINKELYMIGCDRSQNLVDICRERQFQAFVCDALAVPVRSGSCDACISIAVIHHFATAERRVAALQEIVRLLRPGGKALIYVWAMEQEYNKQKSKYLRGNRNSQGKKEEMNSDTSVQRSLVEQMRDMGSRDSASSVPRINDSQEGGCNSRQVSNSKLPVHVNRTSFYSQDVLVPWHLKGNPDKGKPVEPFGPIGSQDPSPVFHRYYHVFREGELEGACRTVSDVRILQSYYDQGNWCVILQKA
B2: Multifunctional methyltransferase subunit TRM112-like protein (Homo sapiens), Q9UI30 (parent)
chain: B1 chain
partner: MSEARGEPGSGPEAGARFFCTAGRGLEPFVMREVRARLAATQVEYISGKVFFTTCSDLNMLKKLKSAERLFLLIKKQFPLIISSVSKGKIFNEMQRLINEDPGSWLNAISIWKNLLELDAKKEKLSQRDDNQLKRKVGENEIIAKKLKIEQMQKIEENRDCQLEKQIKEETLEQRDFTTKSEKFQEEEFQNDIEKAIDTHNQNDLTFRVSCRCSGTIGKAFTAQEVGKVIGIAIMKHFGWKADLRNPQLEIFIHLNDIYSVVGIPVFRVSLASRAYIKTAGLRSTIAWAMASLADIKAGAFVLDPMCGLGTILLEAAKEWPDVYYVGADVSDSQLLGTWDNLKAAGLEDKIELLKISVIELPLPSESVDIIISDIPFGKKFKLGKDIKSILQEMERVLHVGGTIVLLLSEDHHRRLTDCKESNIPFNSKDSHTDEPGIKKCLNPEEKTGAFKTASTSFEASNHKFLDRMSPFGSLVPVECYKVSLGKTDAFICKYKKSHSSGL

Consider eleven variants from IntAct's records for PubMed 34948388.

Variants of B1 are the subject of the first experiment. The settings on record: with alkb8_human ALKBH8, Q96BT7.
Take MKLLTHNLLSSHVRGVGSRGFPLRLQATEVRICPVEFNPNFVARAIPKVEWSAFLEAADNLRLIQVPKGPVEGYEENEEFLRTMHHLLLEVEVIEGTLQCPESGRMFPISRGIPNMLLSEEETES [M45A]: the “effect of a mutation on the interaction” value is reported as “disrupting interaction strength”. For MKLLAHNLLSSHVRGVGSRGFPLRLQATEVRICPVEFNPNFVARMIPKVEWSAFLEAADNLRLIQVPKGPVEGYEENEEFLRTMHHLLLEVEVIEGTLQCPESGRMFPISRGIPNMLLSEEETES [T5A], the “effect of a mutation on the interaction” value was “disrupting interaction strength”. Same read-out and setting: as for MKLLTHNLLSSHVRGVGSRGFPLRLQATEVRICPVEFNPNFVARMIPKVAWSAFLEAADNLRLIQVPKGPVEGYEENEEFLRTMHHLLLEVEVIEGTLQCPESGRMFPISRGIPNMLLSEEETES [E50A], the entry is “with no effect”; as for MKLLTHNLLFSHVRGVGSRGFPLRLQATEVRICPVEFNPNFVARMIPKVEWSAFLEAADNLRLIQVPKGPVEGYEENEEFLRTMHHLLLEVEVIEGTLQCPESGRMFPISRGIPNMLLSEEETES [S10F], “with no effect”.

Consider MKLLTHNLLSSHVRGVGSRGFPLRLQATEVRICPVEFNPNFVARMIPKVEWSAFLEAADNLRLIQVPKGPVEGYEENEEFLRTMHHLLLEVEVIEGTLQCPESGRMFPISRGAPNMLLSEEETES [I113A], for which the “effect of a mutation on the interaction” value is on record as “with no effect”. The same measure, in the same setting: under MKLLTHNLLSSHVRGVGSRGFPLRLQATEVRICPVEFNPNFVARMIPKVEWSAFLEAADNLRLIQVPKGPVEGYEENEEFLRTMHHLLLEVEVIEGTLQCPESGRMAPISRGIPNMLLSEEETES [F107A] stands “decreasing interaction strength”. For MKLLTHNLLSSHVRGVGSRGFPLRLQATEVRICPVEFNPNFVARMIPKVEWSAFLEAADNLRLIQVPKGPVEGYEENEEFLRTMHHLLLEVAVIEGTLQCPESGRMFPISRGIPNMLLSEEETES [E92A], the “effect of a mutation on the interaction” value is “decreasing interaction strength”. Still for that read-out and setting: as for MKLLTHNWLSSHVRGVGSRGFPLRLQATEVRICPVEFNPNFVARMIPKVEWSAFLEAADNLRLIQVPKGPVEGYEENEEFLRTMHHLLLEVEVIEGTLQCPESGRMFPISRGIPNMLLSEEETES [L8W], the entry is “with no effect”. On the same count and under the same terms, as for MKLLTHNLLSSHVRGVGSRGFPLRLQATEVRICPVEFNPNFVARMIPAVEWSAFLEAADNLRLIQVPKGPVEGYEENEEFLRTMHHLLLEVAVIEGTLQCPESGRMFPISRGIPNMLLSEEETES [K48A;E92A], the entry is “disrupting interaction strength”; as for MKLLTHNLLSSHVRGVGSRGFPLRLQATEVRICPVEFNPNFVARMIPAVEWSAFLEAADNLRLIQVPKGPVEGYEENEEFLRTMHHLLLEVEVIEGTLQCPESGRMFPISRGIPNMLLSEEETES [K48A], “with no effect”.

The variants in the next experiment derive from B2. Conditions: with thum2_human THUMPD2, Q9BTF0.
For MKLLTHNLLSSHVRGVGSRGFPLRLQATEVRICPVEFNPNFVARMIPKVEWSAFLEAADNLRLIQVPKGPVEGYEENEEFLRTMHHLLLEVEVIEGTLQCPESGRMFPISRGAPNMLLSEEETES [I113A], the “effect of a mutation on the interaction” value was “disrupting interaction strength”.
